Measurements published in patent publication US20240059763A1 (ZHUHAI TRINOMAB PHARMACEUTICAL, published 2024).

What was measured:
[1] = target: T1, RSV Pre-F protein (pre-fusion conformation of the F protein of RSV A2 strain) (RSV A2 strain, UniProt P03420 26-513); assay: ELISA, RSV Pre-F coated on the plate, TRN1021 in 3-fold dilutions, anti-human IgG-HRP, OD450
T1 construct: Recombinant trimeric protein; also called pre-fusion F protein; antigen Pre-F protein

[2] = target: T1, RSV Pre-F protein (pre-fusion …); assay: SPR (Biacore X100), TRN1021 captured on anti-human IgG (Fc), Pre-F as analyte at 2.5-40 µg/mL

T1 sequence (P03420 26-513): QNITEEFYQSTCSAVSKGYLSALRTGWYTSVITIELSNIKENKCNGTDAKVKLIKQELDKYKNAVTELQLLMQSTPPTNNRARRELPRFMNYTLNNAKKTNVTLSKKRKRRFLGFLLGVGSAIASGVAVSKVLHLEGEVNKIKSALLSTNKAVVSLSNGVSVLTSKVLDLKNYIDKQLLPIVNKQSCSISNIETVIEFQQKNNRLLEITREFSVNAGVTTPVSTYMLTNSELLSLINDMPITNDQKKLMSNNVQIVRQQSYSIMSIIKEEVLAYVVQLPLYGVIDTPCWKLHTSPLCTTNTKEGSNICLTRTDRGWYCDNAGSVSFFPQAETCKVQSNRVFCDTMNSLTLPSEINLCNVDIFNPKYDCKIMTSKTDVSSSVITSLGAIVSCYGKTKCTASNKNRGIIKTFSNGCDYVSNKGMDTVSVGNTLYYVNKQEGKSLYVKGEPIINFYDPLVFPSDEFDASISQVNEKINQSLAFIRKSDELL

B1: fully human anti-RSV monoclonal antibody TRN1021 (antibody, V domains shown)
VH: QVQLVQSGAEVKKPGESLKISCQGSGYSFNNYYIGWVRQMPGKGLEWMVIIYPGDSDTKYSPSFQGQVTVSADRSINTAYLQWSSLRASDTAVYYCVRMDTVTTGAGVGFNWFFDLWGRGTLVTVSS
VL: EIVLTQSPATLSVSPGERATLSCRASQSVTSYLAWYQQKPGQAPRLLIYGASSRATGVPARFSGSGSETEFTLTISSLQSEDFAVYYCQQYNDWPAITFGQGTRLENK
notes: It was expressed in HEK293 cells as a whole human antibody, purified on Protein A, detected with anti-human IgG and captured through anti-human IgG (Fc); also called fully human anti-RSV-F protein monoclonal antibody TRN1021
For B1, the “EC50 (read off the curve)” value [1] was ~8 ng/mL and the Kd [2] was ~1 nM.
